One may read the stoichiometry N as the number of molecules, sites or subunits per partner or assembly.

This passage reports stoichiometry N results from publication PMC11132685.

Test in all cases: SEC-MALS; purified NACHOs; oligomeric state; conditions not given
Assay [1] deals with tetrabrachion-stabilised recombinant N2 NA (NACHO) of A/STOCKHOLM/14/2012 (not stated | influenza A virus (H3N2) A/STOCKHOLM/14/2012).
Assay [2] has as its target tetrabrachion-stabilised recombinant N2 NA (NACHO) of A/ANKARA/2396/2015 (not stated | influenza A virus (H3N2) A/ANKARA/2396/2015).
The target of assay [3] is tetrabrachion-stabilised recombinant N2 NA (NACHO) of A/HATAY/4990/2016 (not stated | influenza A virus (H3N2) A/HATAY/4990/2016).
The target of assay [4] is tetrabrachion-stabilised recombinant N2 NA (NACHO) of A/CATALONIA/9503S/2017 (not stated | influenza A virus (H3N2) A/CATALONIA/9503S/2017).
The target in assay [5] is tetrabrachion-stabilised recombinant N2 NA (NACHO) of A/PARIS/2379/2014 (not stated | influenza A virus (H3N2) A/PARIS/2379/2014).
Assay [6] has as its target tetrabrachion-stabilised recombinant N2 NA (NACHO) of A/SWEDEN/3/2017 (not stated | influenza A virus (H3N2) A/SWEDEN/3/2017).
Assay [7] has as its target tetrabrachion-stabilised recombinant N2 NA (NACHO) of A/SINGAPORE/INFIMH160019/2016 (not stated | influenza A virus (H3N2) A/SINGAPORE/INFIMH160019/2016).
For assay [8], the target named is tetrabrachion-stabilised recombinant N2 NA (NACHO) of A/BRISBANE/273/2016 (not stated | influenza A virus (H3N2) A/BRISBANE/273/2016).
In assay [9] the target is tetrabrachion-stabilised recombinant N2 NA (NACHO) of A/HONGKONG/4801/2014 (not stated | influenza A virus (H3N2) A/HONGKONG/4801/2014).
Assay [10] has as its target tetrabrachion-stabilised recombinant N2 NA (NACHO) of A/VICTORIA/361/2011 (not stated | influenza A virus (H3N2) A/VICTORIA/361/2011).
Assay [11] has as its target tetrabrachion-stabilised recombinant N2 NA (NACHO) of A/TEXAS/50/2012 (not stated | influenza A virus (H3N2) A/TEXAS/50/2012).

Consider “tetrabrachion-stabilised recombinant N2 NA (NACHO) of A/STOCKHOLM/14/2012 (enzyme)”, for which, in assay [1], the stoichiometry N is 4.
Take “tetrabrachion-stabilised recombinant N2 NA (NACHO) of A/ANKARA/2396/2015 (enzyme)”: the stoichiometry N in assay [2] came to 4.
As for “tetrabrachion-stabilised recombinant N2 NA (NACHO) of A/HATAY/4990/2016 (enzyme)”, in [3], the stoichiometry N is 4.
For “tetrabrachion-stabilised recombinant N2 NA (NACHO) of A/CATALONIA/9503S/2017 (enzyme)”, in assay [4], the stoichiometry N amounted to 4.
“tetrabrachion-stabilised recombinant N2 NA (NACHO) of A/PARIS/2379/2014 (enzyme)”: the stoichiometry N in assay [5] was 4.
With “tetrabrachion-stabilised recombinant N2 NA (NACHO) of A/SWEDEN/3/2017 (enzyme)”, the stoichiometry N in assay [6] was 4.
Regarding “tetrabrachion-stabilised recombinant N2 NA (NACHO) of A/SINGAPORE/INFIMH160019/2016 (enzyme)”, the stoichiometry N in [7] amounted to 4.
As for “tetrabrachion-stabilised recombinant N2 NA (NACHO) of A/BRISBANE/273/2016 (enzyme)”, in [8], the stoichiometry N is 4.
In the case of “tetrabrachion-stabilised recombinant N2 NA (NACHO) of A/HONGKONG/4801/2014 (enzyme)”, in assay [9], the stoichiometry N was found to be 4.
“tetrabrachion-stabilised recombinant N2 NA (NACHO) of A/VICTORIA/361/2011 (enzyme)”: the stoichiometry N in [10] was 4.
In the case of “tetrabrachion-stabilised recombinant N2 NA (NACHO) of A/TEXAS/50/2012 (enzyme)”, in assay [11], the stoichiometry N was 4.
